B1: peptide HD2 (from tick evasin EVA4) / CCL1 (biotinylated, synthetic) (parent complex)
chain 1: EEDDYTAYAPLTCYFT
chain 2: KSMQVPFSRCCFSFAEQEIPLRAILCYRNTSSICSNEGLIFKLKRGKEACALDTVGWVQRHRKMLRHCPSKRK

Variants of: B1

| Variant | enrichment |
| --- | --- |
| chain 1 EEDDYTAYAPLTCWFT [chain 1 Y14W] | -0.649 log2 (difference from the parental peptide) |
| chain 1 EEDDYTAYAPLTCLFT [chain 1 Y14L] | -6.02 log2 (difference from the parental peptide) |
| chain 1 EEDDYTAYAPLTCVFT [chain 1 Y14V] | -4.97 log2 (difference from the parental peptide) |
| chain 1 EEDDYTAYAPLTCMFT [chain 1 Y14M] | -4.74 log2 (difference from the parental peptide) |
| chain 1 EEDDYTAYAPLTAYFT [chain 1 C13A] | -7.27 log2 (difference from the parental peptide) |
| chain 1 EEDDYTAYAPLTTYFT [chain 1 C13T] | -4.75 log2 (difference from the parental peptide) |
| chain 1 EEDDYTAYAPLTYYFT [chain 1 C13Y] | -5.39 log2 (difference from the parental peptide) |
| chain 1 EEDDYTAYAPLTEYFT [chain 1 C13E] | -6.35 log2 (difference from the parental peptide) |
| chain 1 EEDDYTAYAPLTRYFT [chain 1 C13R] | -9.78 log2 (difference from the parental peptide) |
| chain 1 EEDNYTAYAPLTCYFT [chain 1 D4N] | -6.19 log2 (difference from the parental peptide) |
| chain 1 EEDSYTAYAPLTCYFT [chain 1 D4S] | -6.83 log2 (difference from the parental peptide) |
| chain 1 EEDWYTAYAPLTCYFT [chain 1 D4W] | -2.57 log2 (difference from the parental peptide) |
| chain 1 EEDAYTAYAPLTCYFT [chain 1 D4A] | -7.31 log2 (difference from the parental peptide) |
| chain 1 EEDDYTAPAPLTCYFT [chain 1 Y8P] | -6.09 log2 (difference from the parental peptide) |
| chain 1 EEVDYTAYAPLTCYFT [chain 1 D3V] | -3.25 log2 (difference from the parental peptide) |
| chain 1 EENDYTAYAPLTCYFT [chain 1 D3N] | -2.85 log2 (difference from the parental peptide) |
| chain 1 EEWDYTAYAPLTCYFT [chain 1 D3W] | -3.57 log2 (difference from the parental peptide) |
| chain 1 EEIDYTAYAPLTCYFT [chain 1 D3I] | -4.23 log2 (difference from the parental peptide) |
| chain 1 EEFDYTAYAPLTCYFT [chain 1 D3F] | -4 log2 (difference from the parental peptide) |

| Variant | enrichment |
| --- | --- |
| chain 1 EEGDYTAYAPLTCYFT [chain 1 D3G] | -3.36 log2 (difference from the parental peptide) |
| chain 1 EEADYTAYAPLTCYFT [chain 1 D3A] | -2.56 log2 (difference from the parental peptide) |
| chain 1 EEYDYTAYAPLTCYFT [chain 1 D3Y] | -2.01 log2 (difference from the parental peptide) |
| chain 1 EEDDWTAYAPLTCYFT [chain 1 Y5W] | 0.92 log2 (difference from the parental peptide) |
| chain 1 ESDDYTAYAPLTCYFT [chain 1 E2S] | -2.78 log2 (difference from the parental peptide) |
| chain 1 EVDDYTAYAPLTCYFT [chain 1 E2V] | -1.95 log2 (difference from the parental peptide) |
| chain 1 ELDDYTAYAPLTCYFT [chain 1 E2L] | -2.22 log2 (difference from the parental peptide) |
| chain 1 EQDDYTAYAPLTCYFT [chain 1 E2Q] | -3.13 log2 (difference from the parental peptide) |
| chain 1 QEDDYTAYAPLTCYFT [chain 1 E1Q] | -1.24 log2 (difference from the parental peptide) |
| chain 1 FEDDYTAYAPLTCYFT [chain 1 E1F] | -2.45 log2 (difference from the parental peptide) |
| chain 1 KEDDYTAYAPLTCYFT [chain 1 E1K] | -5.3 log2 (difference from the parental peptide) |
| chain 1 HEDDYTAYAPLTCYFT [chain 1 E1H] | -2.16 log2 (difference from the parental peptide) |
| chain 1 MEDDYTAYAPLTCYFT [chain 1 E1M] | -0.363 log2 (difference from the parental peptide) |
| chain 1 WEDDYTAYAPLTCYFT [chain 1 E1W] | -2.32 log2 (difference from the parental peptide) |
| chain 1 EEDDYTAYAPLICYFT [chain 1 T12I] | -1.49 log2 (difference from the parental peptide) |
| chain 1 EEDDYTAYAPLACYFT [chain 1 T12A] | -2.04 log2 (difference from the parental peptide) |
| chain 1 EEDDYTAYAPLECYFT [chain 1 T12E] | -2.48 log2 (difference from the parental peptide) |
| chain 1 EEDDYTAYAPLNCYFT [chain 1 T12N] | 1.57 log2 (difference from the parental peptide) |
| chain 1 EEDDYTAYAPCTCYFT [chain 1 L11C] | -1.68 log2 (difference from the parental peptide) |

| Variant | enrichment |
| --- | --- |
| chain 1 EEDDYTAYAPITCYFT [chain 1 L11I] | 2.18 log2 (difference from the parental peptide) |
| chain 1 EEDDYTAYAPFTCYFT [chain 1 L11F] | -4.27 log2 (difference from the parental peptide) |
| chain 1 EEDDYTAYMPLTCYFT [chain 1 A9M] | -5.21 log2 (difference from the parental peptide) |
| chain 1 EEDDYTAYSPLTCYFT [chain 1 A9S] | -1.71 log2 (difference from the parental peptide) |
| chain 1 EEDDYTAYAPLTCYFW [chain 1 T16W] | -0.962 log2 (difference from the parental peptide) |
| chain 1 EEDDYTAYAPLTCYFI [chain 1 T16I] | -0.756 log2 (difference from the parental peptide) |
| chain 1 EEDDYTAYAPLTCYFM [chain 1 T16M] | 0.0746 log2 (difference from the parental peptide) |
| chain 1 EEDDYTAYAPLTCYFP [chain 1 T16P] | 1.67 log2 (difference from the parental peptide) |
| chain 1 EEDDYTAYAPLTCYFK [chain 1 T16K] | -1.01 log2 (difference from the parental peptide) |
| chain 1 EEDDYTAYAPLTCYTT [chain 1 F15T] | 1.39 log2 (difference from the parental peptide) |
| chain 1 EEDDYTAYAPLTCYYT [chain 1 F15Y] | 1.84 log2 (difference from the parental peptide) |
| chain 1 EEDDYTAYAPLTCYKT [chain 1 F15K] | -1.11 log2 (difference from the parental peptide) |
| chain 1 EEDDYTAYAQLTCYFT [chain 1 P10Q] | -4.62 log2 (difference from the parental peptide) |
| chain 1 EEDDYTAYAGLTCYFT [chain 1 P10G] | -5.87 log2 (difference from the parental peptide) |
| chain 1 EEDDYTAYALLTCYFT [chain 1 P10L] | -8.15 log2 (difference from the parental peptide) |
| chain 1 EEDDYTRYAPLTCYFT [chain 1 A7R] | 2.51 log2 (difference from the parental peptide) |
| chain 1 EEDDYTGYAPLTCYFT [chain 1 A7G] | -2.66 log2 (difference from the parental peptide) |
| chain 1 EEDDYPAYAPLTCYFT [chain 1 T6P] | -5.02 log2 (difference from the parental peptide) |
